Numbered stars: 1 amine (or outer) side, 2 acyl side, 3 side chain; on linkers, the order of the positions; unused ones are H or OH. Bridge positions count the residues as written; N and C are the ends. * marks the point of attachment. C20 diacid = O=C(O)CCCCCCCCCCCCCCCCCCC(=O)*; γGlu = O=C(O)[C@H](CCC(=O)[*:2])N[*:1]

Broadly, the IC50 is the concentration needed to halve the response being measured. Read a high IC50 as weaker potency.

T1: human amylin receptor (human, UniProt P30988 25-474; O60896 24-148, limits assumed)
T1 construct: whole, on cells; Calcitonin receptor plus RAMP-3 gives the amylin 3(a) receptor; membranes of Amylin 3(a)/CRE-luc cells were used; also called hAmylin-R; hAmylinR
T1 sequence (looked up) 1: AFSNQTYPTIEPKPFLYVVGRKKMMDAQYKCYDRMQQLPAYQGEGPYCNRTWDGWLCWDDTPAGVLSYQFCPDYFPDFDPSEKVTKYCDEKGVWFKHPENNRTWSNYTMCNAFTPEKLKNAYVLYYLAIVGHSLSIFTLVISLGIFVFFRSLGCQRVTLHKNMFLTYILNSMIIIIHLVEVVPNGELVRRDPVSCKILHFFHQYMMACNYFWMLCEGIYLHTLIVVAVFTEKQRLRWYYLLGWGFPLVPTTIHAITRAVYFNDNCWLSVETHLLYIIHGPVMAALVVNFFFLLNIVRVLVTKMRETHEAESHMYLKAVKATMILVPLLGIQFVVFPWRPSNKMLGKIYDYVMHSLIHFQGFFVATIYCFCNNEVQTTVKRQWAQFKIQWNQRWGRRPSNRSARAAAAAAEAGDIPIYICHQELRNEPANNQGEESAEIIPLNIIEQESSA
T1 sequence (looked up) 2: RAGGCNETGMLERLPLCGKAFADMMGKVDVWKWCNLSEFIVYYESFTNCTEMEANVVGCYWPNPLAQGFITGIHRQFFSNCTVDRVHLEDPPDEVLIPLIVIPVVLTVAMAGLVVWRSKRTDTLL

B1: N^α1-[(4S)-4-carboxy-4-(19-carboxynonadecanoylamino)butanoyl]-[Glu14,Arg17,Pro21,Pro27,His35]-h-amylin (peptide)
peptide: {C20 diacid-γGlu}-KCNTATCATQRLAEFLRHSSPNFGAIPSSTNVGSHTY-NH2
modifications: disulfide 2-7
SMILES: CC[C@H](C)[C@H](NC(=O)[C@H](C)NC(=O)CNC(=O)[C@H](Cc1ccccc1)NC(=O)[C@H](CC(N)=O)NC(=O)[C@@H]1CCCN1C(=O)[C@H](CO)NC(=O)[C@H](CO)NC(=O)[C@H](Cc1c[nH]cn1)NC(=O)[C@H](CCCNC(=N)N)NC(=O)[C@H](CC(C)C)NC(=O)[C@H](Cc1ccccc1)NC(=O)[C@H](CCC(=O)O)NC(=O)[C@H](C)NC(=O)[C@H](CC(C)C)NC(=O)[C@H](CCCNC(=N)N)NC(=O)[C@H](CCC(N)=O)NC(=O)[C@@H](NC(=O)[C@H](C)NC(=O)[C@@H]1CSSC[C@H](NC(=O)[C@H](CCCCN)NC(=O)CC[C@H](NC(=O)CCCCCCCCCCCCCCCCCCC(=O)O)C(=O)O)C(=O)N[C@@H](CC(N)=O)C(=O)N[C@@H]([C@@H](C)O)C(=O)N[C@@H](C)C(=O)N[C@@H]([C@@H](C)O)C(=O)N1)[C@@H](C)O)C(=O)N1CCC[C@H]1C(=O)N[C@@H](CO)C(=O)N[C@@H](CO)C(=O)N[C@H](C(=O)N[C@@H](CC(N)=O)C(=O)N[C@H](C(=O)NCC(=O)N[C@@H](CO)C(=O)N[C@@H](Cc1c[nH]cn1)C(=O)N[C@H](C(=O)N[C@@H](Cc1ccc(O)cc1)C(N)=O)[C@@H](C)O)C(C)C)[C@@H](C)O
notes: also called 14E, 17R, 21P, 27P, 35H
B2: N^α1-[(4S)-4-carboxy-4-(19-carboxynonadecanoylamino)butanoyl]-[Glu14,Arg17,Pro21,Pro27,Pro37]-h-amylin (peptide)
peptide: {C20 diacid-γGlu}-KCNTATCATQRLAEFLRHSSPNFGAIPSSTNVGSNTP-NH2
modifications: disulfide 2-7
SMILES: CC[C@H](C)[C@H](NC(=O)[C@H](C)NC(=O)CNC(=O)[C@H](Cc1ccccc1)NC(=O)[C@H](CC(N)=O)NC(=O)[C@@H]1CCCN1C(=O)[C@H](CO)NC(=O)[C@H](CO)NC(=O)[C@H](Cc1c[nH]cn1)NC(=O)[C@H](CCCNC(=N)N)NC(=O)[C@H](CC(C)C)NC(=O)[C@H](Cc1ccccc1)NC(=O)[C@H](CCC(=O)O)NC(=O)[C@H](C)NC(=O)[C@H](CC(C)C)NC(=O)[C@H](CCCNC(=N)N)NC(=O)[C@H](CCC(N)=O)NC(=O)[C@@H](NC(=O)[C@H](C)NC(=O)[C@@H]1CSSC[C@H](NC(=O)[C@H](CCCCN)NC(=O)CC[C@H](NC(=O)CCCCCCCCCCCCCCCCCCC(=O)O)C(=O)O)C(=O)N[C@@H](CC(N)=O)C(=O)N[C@@H]([C@@H](C)O)C(=O)N[C@@H](C)C(=O)N[C@@H]([C@@H](C)O)C(=O)N1)[C@@H](C)O)C(=O)N1CCC[C@H]1C(=O)N[C@@H](CO)C(=O)N[C@@H](CO)C(=O)N[C@H](C(=O)N[C@@H](CC(N)=O)C(=O)N[C@H](C(=O)NCC(=O)N[C@@H](CO)C(=O)N[C@@H](CC(N)=O)C(=O)N[C@H](C(=O)N1CCC[C@H]1C(N)=O)[C@@H](C)O)C(C)C)[C@@H](C)O
notes: also called 14E, 17R, 21P, 27P, 37P
B3: N^α1-[(4S)-4-carboxy-4-(19-carboxynonadecanoylamino)butanoyl]-[Glu14,Arg17,Pro21,Pro27,Pro34]-h-amylin (peptide)
peptide: {C20 diacid-γGlu}-KCNTATCATQRLAEFLRHSSPNFGAIPSSTNVGPNTY-NH2
modifications: disulfide 2-7
SMILES: CC[C@H](C)[C@H](NC(=O)[C@H](C)NC(=O)CNC(=O)[C@H](Cc1ccccc1)NC(=O)[C@H](CC(N)=O)NC(=O)[C@@H]1CCCN1C(=O)[C@H](CO)NC(=O)[C@H](CO)NC(=O)[C@H](Cc1c[nH]cn1)NC(=O)[C@H](CCCNC(=N)N)NC(=O)[C@H](CC(C)C)NC(=O)[C@H](Cc1ccccc1)NC(=O)[C@H](CCC(=O)O)NC(=O)[C@H](C)NC(=O)[C@H](CC(C)C)NC(=O)[C@H](CCCNC(=N)N)NC(=O)[C@H](CCC(N)=O)NC(=O)[C@@H](NC(=O)[C@H](C)NC(=O)[C@@H]1CSSC[C@H](NC(=O)[C@H](CCCCN)NC(=O)CC[C@H](NC(=O)CCCCCCCCCCCCCCCCCCC(=O)O)C(=O)O)C(=O)N[C@@H](CC(N)=O)C(=O)N[C@@H]([C@@H](C)O)C(=O)N[C@@H](C)C(=O)N[C@@H]([C@@H](C)O)C(=O)N1)[C@@H](C)O)C(=O)N1CCC[C@H]1C(=O)N[C@@H](CO)C(=O)N[C@@H](CO)C(=O)N[C@H](C(=O)N[C@@H](CC(N)=O)C(=O)N[C@H](C(=O)NCC(=O)N1CCC[C@H]1C(=O)N[C@@H](CC(N)=O)C(=O)N[C@H](C(=O)N[C@@H](Cc1ccc(O)cc1)C(N)=O)[C@@H](C)O)C(C)C)[C@@H](C)O
notes: also called 14E, 17R, 21P, 27P, 34P
B4: N^α1-[(4S)-4-carboxy-4-(19-carboxynonadecanoylamino)butanoyl]-[Glu14,Arg17,Pro21,Pro27,Pro31]-h-amylin (peptide)
peptide: {C20 diacid-γGlu}-KCNTATCATQRLAEFLRHSSPNFGAIPSSTPVGSNTY-NH2
modifications: disulfide 2-7
SMILES: CC[C@H](C)[C@H](NC(=O)[C@H](C)NC(=O)CNC(=O)[C@H](Cc1ccccc1)NC(=O)[C@H](CC(N)=O)NC(=O)[C@@H]1CCCN1C(=O)[C@H](CO)NC(=O)[C@H](CO)NC(=O)[C@H](Cc1c[nH]cn1)NC(=O)[C@H](CCCNC(=N)N)NC(=O)[C@H](CC(C)C)NC(=O)[C@H](Cc1ccccc1)NC(=O)[C@H](CCC(=O)O)NC(=O)[C@H](C)NC(=O)[C@H](CC(C)C)NC(=O)[C@H](CCCNC(=N)N)NC(=O)[C@H](CCC(N)=O)NC(=O)[C@@H](NC(=O)[C@H](C)NC(=O)[C@@H]1CSSC[C@H](NC(=O)[C@H](CCCCN)NC(=O)CC[C@H](NC(=O)CCCCCCCCCCCCCCCCCCC(=O)O)C(=O)O)C(=O)N[C@@H](CC(N)=O)C(=O)N[C@@H]([C@@H](C)O)C(=O)N[C@@H](C)C(=O)N[C@@H]([C@@H](C)O)C(=O)N1)[C@@H](C)O)C(=O)N1CCC[C@H]1C(=O)N[C@@H](CO)C(=O)N[C@@H](CO)C(=O)N[C@H](C(=O)N1CCC[C@H]1C(=O)N[C@H](C(=O)NCC(=O)N[C@@H](CO)C(=O)N[C@@H](CC(N)=O)C(=O)N[C@H](C(=O)N[C@@H](Cc1ccc(O)cc1)C(N)=O)[C@@H](C)O)C(C)C)[C@@H](C)O
notes: also called 14E, 17R, 21P, 27P, 31P
B5: N^α1-[(4S)-4-carboxy-4-(19-carboxynonadecanoylamino)butanoyl]-[Glu14,Arg17,Pro21,Pro27]-h-amylin (peptide)
peptide: KCNTATCATQRLAEFLRHSSPNFGAIPSSTNVGSNTY
modifications: C20 diacid-gGlu on the alpha amino group of the N-terminal residue; disulfide Cys2-Cys7 and C-terminal amide as in human amylin
notes: also called 14E, 17R, 21P, 27P
B6: N^α1-[(4S)-4-carboxy-4-[[(4S)-4-carboxy-4-(19-carboxynonadecanoylamino)butanoyl]amino]butanoyl]-[Glu14,Arg17,Pro21,Pro27,Pro37]-h-amylin (peptide)
peptide: {C20 diacid-γGlu-γGlu}-KCNTATCATQRLAEFLRHSSPNFGAIPSSTNVGSNTP-NH2
modifications: disulfide 2-7
SMILES: CC[C@H](C)[C@H](NC(=O)[C@H](C)NC(=O)CNC(=O)[C@H](Cc1ccccc1)NC(=O)[C@H](CC(N)=O)NC(=O)[C@@H]1CCCN1C(=O)[C@H](CO)NC(=O)[C@H](CO)NC(=O)[C@H](Cc1c[nH]cn1)NC(=O)[C@H](CCCNC(=N)N)NC(=O)[C@H](CC(C)C)NC(=O)[C@H](Cc1ccccc1)NC(=O)[C@H](CCC(=O)O)NC(=O)[C@H](C)NC(=O)[C@H](CC(C)C)NC(=O)[C@H](CCCNC(=N)N)NC(=O)[C@H](CCC(N)=O)NC(=O)[C@@H](NC(=O)[C@H](C)NC(=O)[C@@H]1CSSC[C@H](NC(=O)[C@H](CCCCN)NC(=O)CC[C@H](NC(=O)CC[C@H](NC(=O)CCCCCCCCCCCCCCCCCCC(=O)O)C(=O)O)C(=O)O)C(=O)N[C@@H](CC(N)=O)C(=O)N[C@@H]([C@@H](C)O)C(=O)N[C@@H](C)C(=O)N[C@@H]([C@@H](C)O)C(=O)N1)[C@@H](C)O)C(=O)N1CCC[C@H]1C(=O)N[C@@H](CO)C(=O)N[C@@H](CO)C(=O)N[C@H](C(=O)N[C@@H](CC(N)=O)C(=O)N[C@H](C(=O)NCC(=O)N[C@@H](CO)C(=O)N[C@@H](CC(N)=O)C(=O)N[C@H](C(=O)N1CCC[C@H]1C(N)=O)[C@@H](C)O)C(C)C)[C@@H](C)O
notes: as for B2

For this assay, the target named is T1, human amylin receptor. Put plainly: SPA competition binding, displacement of 125I-rat amylin from membranes with human amylin 3(a) receptor (Assay V). Here is the method: The binding assay was performed using scintillation proximity assay (SPA) beads (RPNQ0001) from PerkinElmer and cell membranes from the Amylin 3(a)/CRE-luc cells (as described in Assay (II)) were used. Membranes were prepared in the following way; the cells were rinsed with PBS and incubated with Versene for approximately 5 min before harvesting. The cells were flushed with PBS and the cell-suspension was centrifuged for 5 min at 1000 rpm. Cells were homogenized (ultrathurrax) in a buffer containing 20 mM Na-HEPES and 10 mM EDTA (pH 7.4) and centrifuged at 20.000 rpm for 15 min. The resulting pellet was resuspended, homogenized and centrifuged (20.000 rpm, 15 min) in a buffer containing 20 mM Na-HEPES and 0.1 mM EDTA (pH 7.4, buffer 2). The resulting pellet was resuspended in buffer 2 and protein concentration was measured (BCA protein Assay, Pierce). The homogenate was kept cold during the whole procedure. The membranes were kept at −80° C. until use. The assay was performed in a 384 well Optiplate (PerkinElmer) in a total volume of 40 ul. Membranes were mixed with SPA beads. Final concentration of membranes 35 ng/μL final and SPA beads was 0.05 mg/well. Test-compounds were dissolved in DMSO and further diluted in assay buffer (50 mM Hepes, pH 7.4, 1 mM CaCl2, 5 mM MgCl₂, 0.1% OA and 0.02% Tween20). […] The final mixture was incubated with shaking at 400 rpm for 120 min at 25° C. prior to centrifugation (1500 rpm, 10 min). Samples were analyzed on TopCounter™ (Packard). The IC₅₀ was calculated using (one site binding competition analysis) GraphPad Prism5 as a measure of receptor affinity.
Background: Loss of bound radioactivity is the signal in a displacement assay; it reports binding, not function.
In the case of B1, the IC50 was determined as 0.554 nM. Molecule B2 showed an IC50 of 0.072 nM.

As for B3, the concentration for half-maximal inhibition (IC50) came to 0.1 nM. Turning to B4, the IC50 was found to be 0.204 nM. B5 gave an IC50 of 0.143 nM. B6 came in with an IC50 of 0.196 nM.

The values above are taken from patent publication US20140087995A1 (published 2014).
